Experimental data: patent US20180312587A1 (ADURO BIOTECH HOLDINGS EUROPE B V, published 2018)

What was measured:
[1] = molecular target: T1, human SIRPα variant 1 (human, UniProt P78324 31-504); experiment: CELISA, CHO-K1 transfectants, domain exchange study
T1 construct: full length ORF on transfected CHO-K1 or HEK293 cells; entry includes the signal peptide; also called hSIRPαV1; SIRPαV1
From the text: (§1) Based on the fold of SIRPα/β1/γ, the extracellular region can be subdivided into three separate domains: the Ig-like (immunoglobulin-like) V-type (IgV), Ig-like C1-type (IgC1), and Ig-like C2-type (IgC2) domain. The IgV domain is also known as the ligand-binding N-terminal domain of SIRPα and SIRPγ (which binds to CD47). The human SIRPβ1/γ mutants were designed based on the full length hSIRPβ1 sequence (SEQ ID NO: 38) and each individual Ig-like domain was substituted for the equivalent domain of human SIRPγ (SEQ ID NO: 40). […] Binding of hSIRPα.40A to the exchange mutants was tested using CELISA. To this end, CHO-K1 cells were transiently transfected, using Lipofectamine 2000, with the pCI-neo vectors encoding hSIRPαV1, hSIRPαV2, hSIRPβ1, hSIRP-VγC1βC2β, hSIRP-VβC1γC2β, and hSIRP-VβC1βC2γ, respectively. The transfected cells were cultured at 37° C., 5% CO₂ and 95% humidity in medium (DMEM-F12 (Gibco) with 5% New Born Calf serum (Biowest) and Pen/Strep (Gibco)) until confluent. Subsequently, cells were trypsinized and seeded in 96-well flat-bottom tissue culture plates and cultured at 37° C., 5% CO₂ and 95% humidity in culture medium until confluent. Then, culture medium was removed and cells were incubated for 1 hour at 37° C., 5% CO₂ and 95% humidity with hSIRPα.40A, hSIRPα.50A, and anti-hSIRPα clone SE5A5 antibodies. Next, cells were washed with PBS-T and incubated for 1 hour at 37° C., 5% CO₂ and 95% humidity with goat-anti-mouse IgG-HRP conjugate (Southern Biotech). After that, cells were washed three times with PBS-T and anti-hSIRPα immunoreactivity was visualized with TMB Stabilized Chromogen (Invitrogen). Reactions were stopped with 0.5 M H₂SO₄ and absorbances were read at 450 and 610 nm.

[2] = molecular target: T2, human SIRPα variant 2 (human, UniProt P78324 31-504); experiment: as above
T2 construct: full length ORF on transfected CHO-K1 cells; also called hSIRPαV2; SIRPαV2
T2 sequence (P78324 other isoform, or with tags, fused parts or gaps mutant limits assumed): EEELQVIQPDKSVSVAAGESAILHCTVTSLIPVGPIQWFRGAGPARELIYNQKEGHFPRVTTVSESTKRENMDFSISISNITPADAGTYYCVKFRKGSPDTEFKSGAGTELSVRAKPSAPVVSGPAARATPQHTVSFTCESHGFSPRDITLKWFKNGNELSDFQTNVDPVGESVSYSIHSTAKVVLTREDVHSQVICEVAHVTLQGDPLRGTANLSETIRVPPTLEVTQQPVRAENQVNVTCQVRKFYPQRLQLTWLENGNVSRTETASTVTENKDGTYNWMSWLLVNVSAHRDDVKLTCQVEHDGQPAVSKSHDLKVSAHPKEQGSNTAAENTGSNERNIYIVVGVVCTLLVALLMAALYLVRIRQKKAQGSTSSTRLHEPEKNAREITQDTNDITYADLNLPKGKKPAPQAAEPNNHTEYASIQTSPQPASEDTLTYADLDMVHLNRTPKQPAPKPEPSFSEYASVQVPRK
From the text: as §1

[3] = molecular target: T1, human SIRPα variant 1; experiment: CELISA, CHO-K1 transfectants, point mutant study
Experimental: Amino acids in the hSIRPα IgV domain that are altered in hSIRPβ1 were mutated by using the QuikChange II Site-Directed Mutagenesis Kit (Stratagene) and the full length hSIRPαV1 sequence (SEQ ID NO: 33) as donor cDNA. Binding of hSIRPα.40A to hSIRPαV1 point mutants was tested using CELISA. To this end, CHO-K1 cells were transiently transfected, using Lipofectamine 2000, with cDNA encoding the full length open reading frame of hSIRPαV1 and mutants thereof, and hSIRPβ1 subcloned into the pCI-neo vector. Transfected cells were seeded in culture medium (DMEM-F12 (Gibco) supplemented with 5% New Born Calf Serum (BioWest) and Pen/Strep (Gibco)) in 96-well flat-bottom tissue culture plates and incubated at 37° C., 5% CO₂ and 95% humidity for 24 hours. Subsequently, culture medium was removed and cells were incubated for 1 hour at 37° C., 5% CO₂ and 95% humidity with purified hSIRPα antibodies (used at 10 μg/mL and dilutions thereof). Next, cells were washed with PBS-T and incubated for 1 hour at 37° C., 5% CO₂ and 95% humidity with goat-anti-mouse IgG-HRP (Southern Biotech). Subsequently, cells were washed three times with PBS-T and immunoreactivity against hSIRPαV1, hSIRPαV1 mutants, and hSIRPβ1 was visualized with TMB Stabilized Chromogen (Invitrogen). Reactions were stopped with 0.5 M H₂SO₄ and absorbances were read at 450 and 610 nm. […]

[4] = molecular target: T3, human SIRPγ (human, UniProt Q9P1W8 29-387); experiment: flow cytometry, Jurkat E6.1 cells
T3 construct: on transfected CHO-K1 cells; also called hSIRPγ
T3 sequence (Q9P1W8 29-387 limits assumed): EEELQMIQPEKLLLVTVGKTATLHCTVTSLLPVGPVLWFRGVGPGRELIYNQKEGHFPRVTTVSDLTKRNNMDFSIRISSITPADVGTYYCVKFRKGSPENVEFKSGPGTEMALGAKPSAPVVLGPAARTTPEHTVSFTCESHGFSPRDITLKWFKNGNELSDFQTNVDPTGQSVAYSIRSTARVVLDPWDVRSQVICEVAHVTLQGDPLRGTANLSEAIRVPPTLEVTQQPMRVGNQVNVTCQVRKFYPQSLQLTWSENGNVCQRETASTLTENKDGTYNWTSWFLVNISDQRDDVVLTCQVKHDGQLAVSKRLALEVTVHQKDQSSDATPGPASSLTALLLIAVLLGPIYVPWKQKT
Experimental: Binding to hSIRPγ was assessed by flow cytometry using the Jurkat E6.1 T cell leukemia cell line (ECACC 88042803). Jurkat cells were seeded in 96-well round bottomed tissue culture plates and incubated for 40 minutes with the anti-hSIRPα antibodies (20 μg/mL and dilutions thereof) in PBS/1% BSA at 4° C. […] After this labeling procedure, cells were washed two times, resuspended in PBS/1% BSA, containing 0.1 μg/mL DAPI (BioLegend), and analysed by flow cytometry on the FACSVerse (BD Biosciences). Data were processed and analysed with FlowJo V10 software (FlowJo, LLC).

T1 sequence (P78324 31-504 limits assumed, change not shown): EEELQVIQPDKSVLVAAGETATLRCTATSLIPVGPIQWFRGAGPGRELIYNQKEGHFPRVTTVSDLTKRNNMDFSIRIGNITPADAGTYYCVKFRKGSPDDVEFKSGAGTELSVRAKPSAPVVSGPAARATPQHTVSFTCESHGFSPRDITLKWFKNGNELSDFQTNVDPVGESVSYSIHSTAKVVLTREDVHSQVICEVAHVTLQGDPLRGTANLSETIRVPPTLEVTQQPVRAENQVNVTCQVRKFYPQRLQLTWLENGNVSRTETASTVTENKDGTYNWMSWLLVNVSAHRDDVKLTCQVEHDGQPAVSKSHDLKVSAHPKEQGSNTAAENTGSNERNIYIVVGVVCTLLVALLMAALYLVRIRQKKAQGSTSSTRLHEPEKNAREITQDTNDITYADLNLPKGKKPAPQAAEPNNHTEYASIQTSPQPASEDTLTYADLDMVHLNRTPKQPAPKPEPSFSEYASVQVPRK

Row | EC50 [1] [pM] | EC50 [2] [pM] | EC50 [3] [pM] | EC50 [4] [pM] | Binder
1 | 968 | 821 | 534 | – | hSIRPα.50A (antibody, V domains shown, light chain constant domain not tied; also called mouse hSIRPα.50A; hSIRPα.50A.mIgG1) VH: QVQLQQSGPELVKPGASVRISCKASGFTFTNYYIHWVKQRPGQGLEWIGWIYPGNVNTKYNEKFKAKATLTADKSSTTAYMQLSSLASEDSAVYFCARPTIIATDFDVWGAGTTVTVSS VL: DIVMTQSHKFMSTSVGDRVNITCKASQGVGTAVGWYQQKPGQSPRLLIYWASTRHTGVPDRFTGSGSGTDFSLAISNVQSEDLADYFCQQYSTYPFTFGGGTNLEIK
2 | – | – | – | 3 | KWAR23 (antibody, V domains shown) VH: EVQLQQSGAELVKPGASVKLSCTASGFNIKDYYIHWVQQRTEQGLEWIGRIDPEDGETKYAPKFQDKATITADTSSNTAYLHLSSLTSEDTAVYYCARWGAYWGQGTLVTVSS VL: QIVLTQSPAIMSASPGEKVTLTCSASSSVSSSYLYWYQQKPGSSPKLWIYSTSNLASGVPARFSGSGSGTSYSLTISSMEAEDAASYFCHQWSSYPRTFGAGTKLELK
3 | 133 | 101 | 65 | 369 | hSIRPα.40A (antibody, mouse IgG1, kappa, V domains shown, mouse antibody, full chains without signal peptide; also called mouse hSIRPα.40A) VH: EVQFQQSGTVLARPGTSVKMSCKASGSTFTSYWMHWVKQGPGQGLQWIGAIYPVNNDTTYNQKFKGKAELTVVTSTSTAYMEVSSLTNEDSAVYYCTRSFYYSLDAAWFVYWGQGTLVTVSA VL: DIQMTQSPSSLSASLGERVSLTCRASQDIGSRLNWLQQEPDGTIKRLIYATSSLDSGVPKRFSGSRSGSDYSLTISGLESEDFVDYYCLQYASSPFTFGGGTKLEINR
